These results are taken from article doi:10.1101/2021.01.08.425872.

Read-outs that look alike come from different tables or passages of the source.

Experiment [1] deals with taxol-stabilized microtubules (porcine brain tubulin) (porcine) (UniProt P02550). Kind of experiment: co-sedimentation.
Experiment [2] shares this target. In words: co-sedimentation. This is another data set of the same source.

Consider “ICR2-His6 (from UniProt Q9ZQC5 56-583) (natural protein)”, for which the stoichiometry N (mol per mol of tubulin) in experiment [1] came out at 0.85.

B1: ICR1-His6 (natural protein)
chain: MPRPRVSELSQRQAPRLRSSSSTSDSNHSNRLITTDQSFKPGVDRKSPRSGGPNSDPLGQKKLGGRISDLESQLGQAQEELRLLKEQLANAEAVKKQAQDELHKKSKKPNPLARVEESATEAERIDRDEIPGDVQKETDVFEVPVEKIAVEEEELRSGNDEAEKLVAKEDEIKMLKARLYDMEKEHESLGKENESLKNQLSDSASEISNVKANEDEMVSKVSRIGEELEESRAKTAHLKEKLESMEEAKDALEAEMKKLRVQTEQWRKAADAAAAVLSGEFEMNGRDRSGSTEKYYAGGFFDPSAGFMDPPGMADDYDDGLGSGKRKSSGMKMFGELWRKKGQK
As to B1, the figures for the stoichiometry N (mol per mol of tubulin) in experiment [1] and in experiment [2] were 0.4 and 0.35, respectively.
